Laboratory results reported in article PMC7164261.

Experiments:
[1] = target: T1, Flag-TMIGD1/WT (human TMIGD1, AA 30-262) stably expressed in MDCKII-TetOFF cells (human) (UniProt Q6UXZ0)
T1 sequence: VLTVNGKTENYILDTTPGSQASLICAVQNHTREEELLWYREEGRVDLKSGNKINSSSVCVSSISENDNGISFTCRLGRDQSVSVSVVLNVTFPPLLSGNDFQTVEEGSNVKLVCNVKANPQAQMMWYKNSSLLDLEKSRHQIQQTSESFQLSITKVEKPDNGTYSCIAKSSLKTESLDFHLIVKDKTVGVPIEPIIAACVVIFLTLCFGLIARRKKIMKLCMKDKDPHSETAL

[2] = target: T2, Flag-ΔD1-TMIGD1 (human TMIGD1 lacking the membrane-distal Ig-like domain, AA 115-262) (human) (UniProt Q6UXZ0)
T2 sequence: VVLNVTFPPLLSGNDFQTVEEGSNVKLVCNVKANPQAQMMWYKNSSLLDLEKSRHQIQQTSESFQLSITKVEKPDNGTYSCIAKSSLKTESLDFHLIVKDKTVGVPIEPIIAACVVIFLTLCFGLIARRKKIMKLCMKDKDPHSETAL

recruitment of TMIGD1/WT from cytoplasmic compartments to mitochondria in Myc-SYNJ2BP-expressing MDCKII-TetOFF cells (immunofluorescence microscopy, fraction of cells) [1]: 75% | recruitment of ΔD1-TMIGD1 from cell-cell contacts to mitochondria in Myc-SYNJ2BP-expressing MDCKII-TetOFF cells (immunofluorescence microscopy, fraction of cells) [2]: > 90%
B1: Myc-hSYNJ2BP (human SYNJ2BP full length, AA 2-145) (natural protein)
chain: NGRVDYLVTEEEINLTRGPSGLGFNIVGGTDQQYVSNDSGIYVSRIKENGAAALDGRLQEGDKILSVNGQDLKNLLHQDAVDLFRNAGYAVSLRVQHRLQVQNGPIGHRGEGDPSGIPIFMVLVPVFALTMVAAWAFMRYRQQL
